Measured values reported in patent US20240270821A1, “GIP/GLP1/GCG TRI-RECEPTOR AGONISTS AND USES THEREOF” (priority 2023, published 2024).
Numbering of substitutions follows the chain as printed. Starred links: 1 amine or outer side, 2 acyl side, 3 side chain; linkers in the order of their positions; H or OH if unused. Non-standard residues stand in square brackets, D forms with d. Groups on a side chain read outwards from the residue. No end group written: not given here. *: point of attachment. C20 diacid = O=C(O)CCCCCCCCCCCCCCCCCCC(=O)*; C18 diacid = O=C(O)CCCCCCCCCCCCCCCCC(=O)*; γGlu = O=C(O)[C@H](CCC(=O)[*:2])N[*:1]; αMe4Pal = C[C@](N)(Cc1ccncc1)C(=O)O; αMeY = C[C@](N)(Cc1ccc(O)cc1)C(=O)O; 4Pal = N[C@@H](Cc1ccncc1)C(=O)O; αMeL = CC(C)C[C@](C)(N)C(=O)O; Orn = NCCC[C@H](N)C(=O)O; Dap = NC[C@H](N)C(=O)O; AEEA = NCCOCCOCC(=O)O; Aib = CC(C)(N)C(=O)O

T1: hGIPR (Homo sapiens, UniProt P48546)
T1 sequence (P48546 22-466): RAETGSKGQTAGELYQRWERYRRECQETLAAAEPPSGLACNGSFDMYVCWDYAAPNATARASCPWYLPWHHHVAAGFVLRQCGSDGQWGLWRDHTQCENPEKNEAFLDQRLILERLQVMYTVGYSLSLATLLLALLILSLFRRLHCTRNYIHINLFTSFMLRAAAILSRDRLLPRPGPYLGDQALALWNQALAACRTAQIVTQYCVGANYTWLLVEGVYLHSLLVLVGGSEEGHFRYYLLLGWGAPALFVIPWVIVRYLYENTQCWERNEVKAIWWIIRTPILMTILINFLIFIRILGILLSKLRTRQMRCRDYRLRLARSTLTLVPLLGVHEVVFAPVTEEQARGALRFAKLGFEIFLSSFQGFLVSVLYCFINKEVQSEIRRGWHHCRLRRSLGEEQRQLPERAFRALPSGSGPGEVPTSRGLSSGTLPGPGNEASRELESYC

T2: human GIP receptor (human) (UniProt P48546)
T2 sequence (looked up): T1 sequence (P48546 22-466)

B1: Example 712 (peptide)
chain: YXQGTXTSDXXIXLDXKAQXEFIEXLIEGGPSSGAPPPSGSE
modifications: synthetic construct; SITE 2: note = 2-Aminoisobutyric Acid; SITE 6: note = alpha-methyl-2-fluoro-L-phenylalanine; SITE 10: note = 3-(4-Pyridyl)-L-alanine; SITE 11: note = alpha-methyl-L-serine; SITE 13: note = alpha-methyl-leucine; SITE 16: note = L-ornithine; SITE 17: note = Lysine is chemically mo
B2: Example 694 (peptide)
chain: YXQGTXTSDXXIXLDXKAQXEFIEXLVEGGPSSGAPPPSGS
modifications: synthetic construct; SITE 2: note = 2-Aminoisobutyric Acid; SITE 6: note = alpha-methyl-2-fluoro-L-phenylalanine; SITE 10: note = 3-(4-Pyridyl)-L-alanine; SITE 11: note = alpha-methyl-L-serine; SITE 13: note = alpha-methyl-leucine; SITE 16: note = L-ornithine; SITE 17: note = Lysine is chemically mo
B3: Example 686 (peptide)
chain: YXQGTXTSDXSIXLDXKAQXXFIEXLIEGGPSSGEPPPETE
modifications: synthetic construct; SITE 2: note = 2-Aminoisobutyric Acid; SITE 6: note = alpha-methyl-2-fluoro-L-phenylalanine; SITE 10: note = 3-(4-Pyridyl)-L-alanine; SITE 13: note = alpha-methyl-leucine; SITE 16: note = L-ornithine; SITE 17: note = Lysine is chemically modified through conjugation of the epsil
B4: Example 510 (peptide)
chain: YXQGTXTSDXSILLDKKAQXAFIEYLEEGGPSSGAPPPSGTGE
modifications: synthetic construct; SITE 2: note = 2-Aminoisobutyric Acid; SITE 6: note = alpha-methyl-2-fluoro-L-phenylalanine; SITE 10: note = 3-(4-Pyridyl)-L-alanine; SITE 17: note = Lysine is chemically modified through conjugation of the epsilon-amino group of the Lysine side chain with (gamma-Glu)2-CO-(CH2)1
B5: Example 358 (peptide)
chain: YXQGTFTSDYSKXLDKKAQXAFIEYLLEGGESSGAPPPSGS
modifications: synthetic construct; SITE 2: note = 2-Aminoisobutyric Acid; SITE 13: note = alpha-methyl-leucine; SITE 17: note = Lysine is chemically modified through conjugation of the epsilon-amino group of the Lysine side chain with (2-[2-(2-Amino-ethoxy)-ethoxy]-acetyl)-(gamma-Glu)-CO-(CH2) 16-CO2H; SITE 20: n
B6: Example 119 (peptide)
chain: B5 chain with Y10F, K12X, Y25W, E31P, S41E
modifications: synthetic construct; SITE 2: note = 2-Aminoisobutyric Acid; SITE 12: note = L-ornithine; SITE 13: note = alpha-methyl-leucine; SITE 17: note = Lysine is chemically modified through conjugation of the epsilon-amino group of the Lysine side chain with (2-[2-(2-Amino-ethoxy)-ethoxy]-acetyl)-(gamma-Glu)
B7: Example 361 (peptide)
chain: B5 chain with K12R
modifications: synthetic construct; SITE 2: note = 2-Aminoisobutyric Acid; SITE 13: note = alpha-methyl-leucine; SITE 17: note = Lysine is chemically modified through conjugation of the epsilon-amino group of the Lysine side chain with (2-[2-(2-Amino-ethoxy)-ethoxy]-acetyl)-(gamma-Glu)-CO-(CH2) 16-CO2H; SITE 20: n
B8: Example 362 (peptide)
chain: B5 chain with K12Q
modifications: synthetic construct; SITE 2: note = 2-Aminoisobutyric Acid; SITE 13: note = alpha-methyl-leucine; SITE 17: note = Lysine is chemically modified through conjugation of the epsilon-amino group of the Lysine side chain with (2-[2-(2-Amino-ethoxy)-ethoxy]-acetyl)-(gamma-Glu)-CO-(CH2) 16-CO2H; SITE 20: n
B9: Example 359 (peptide)
chain: B5 chain with K12X
modifications: synthetic construct; SITE 2: note = 2-Aminoisobutyric Acid; SITE 12: note = L-ornithine; SITE 13: note = alpha-methyl-leucine; SITE 17: note = Lysine is chemically modified through conjugation of the epsilon-amino group of the Lysine side chain with (2-[2-(2-Amino-ethoxy)-ethoxy]-acetyl)-(gamma-Glu)

Assays:
hGIPR [1] = biological target: T1, hGIPR; experiment: Functional cAMP activity in the presence of 1% HSA; format: cell-based; conditions: read-out: cAMP Rel EC50, hGIPR
hGLP-1R [2] = biological target: T3, hGLP-1R (Homo sapiens, UniProt P43220); experiment: Functional cAMP activity in the presence of 1% HSA; format: cell-based; conditions: read-out: cAMP Rel EC50, hGLP-1R
T3 sequence (P43220 24-463): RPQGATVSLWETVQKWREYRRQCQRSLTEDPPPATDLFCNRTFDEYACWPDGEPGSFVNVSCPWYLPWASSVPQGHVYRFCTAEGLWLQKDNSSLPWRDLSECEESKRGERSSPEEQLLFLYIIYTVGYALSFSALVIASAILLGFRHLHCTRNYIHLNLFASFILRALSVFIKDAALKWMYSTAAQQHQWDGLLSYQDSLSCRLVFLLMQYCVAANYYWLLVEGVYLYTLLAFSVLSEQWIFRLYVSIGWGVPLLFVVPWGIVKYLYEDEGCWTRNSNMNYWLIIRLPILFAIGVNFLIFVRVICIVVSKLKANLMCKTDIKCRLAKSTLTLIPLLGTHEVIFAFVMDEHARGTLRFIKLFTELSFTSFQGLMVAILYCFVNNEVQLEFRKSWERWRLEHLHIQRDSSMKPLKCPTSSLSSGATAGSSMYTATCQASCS

human GcgR = human GcgR (Homo sapiens, UniProt P47871); experiment: Functional cAMP activity in the presence of 1% HSA; format: cell-based; conditions: read-out: cAMP Rel EC50, hGcgR
Chain of human GcgR (P47871 26-477): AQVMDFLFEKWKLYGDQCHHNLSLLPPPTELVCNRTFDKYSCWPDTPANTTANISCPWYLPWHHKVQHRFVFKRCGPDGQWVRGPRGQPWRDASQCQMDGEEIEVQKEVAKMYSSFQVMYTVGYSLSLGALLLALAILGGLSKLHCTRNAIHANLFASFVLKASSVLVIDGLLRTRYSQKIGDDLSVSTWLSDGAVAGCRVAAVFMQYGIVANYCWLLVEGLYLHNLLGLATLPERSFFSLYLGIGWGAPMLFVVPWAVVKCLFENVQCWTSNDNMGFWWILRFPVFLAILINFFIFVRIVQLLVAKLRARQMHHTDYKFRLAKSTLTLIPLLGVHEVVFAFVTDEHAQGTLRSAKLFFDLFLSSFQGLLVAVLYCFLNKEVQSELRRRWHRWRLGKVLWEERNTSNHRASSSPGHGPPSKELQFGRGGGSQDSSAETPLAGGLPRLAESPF

hGIPR [3] = biological target: T1, hGIPR; experiment: Functional cAMP activation in the presence of 0.1% casein (no HSA); format: cell-based; conditions: in the presence of 0.1% casein (no HSA); geometric mean; read-out: Relative cAMP EC50, hGIPR;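 as to Relative cAMP EC50, hGIPR: intracellular cAMP rise after 30 min at 37 °C read by HTRF against a standard curve, scaled between buffer alone (0%) and top control ligand concentration (100%), four-parameter fit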;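 as to Relative cAMP EC50, hGLP-1R: intracellular cAMP rise after 30 min at 37 °C read by HTRF, normalized between buffer only (0%) and maximal control ligand (100%), four-parameter variable-slope fit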;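 as to Relative cAMP EC50, hGcgR: intracellular cAMP rise after 30 min at 37 °C, read by HTRF against a cAMP standard curve, scaled from buffer only (0%) to maximal control ligand response (100%)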
hGLP-1R [4] = biological target: T3, hGLP-1R; experiment: as above; format: cell-based; conditions: in the presence of 0.1% casein (no HSA); geometric mean; read-out: Relative cAMP EC50, hGLP-1R
hGcgR = hGcgR (Homo sapiens, UniProt P47871); experiment: as above; format: cell-based; conditions: in the presence of 0.1% casein (no HSA); geometric mean; read-out: Relative cAMP EC50, hGcgR;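 also: intracellular cAMP rise after 30 min at 37 °C, read by HTRF against a cAMP standard curve, scaled from buffer only (0%) to maximal control ligand response (100%)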
Chain of hGcgR (P47871 26-477): as above

human GLP1-R = human GLP1-R (Homo sapiens, UniProt P43220); experiment: GLP1-R internalization assay in HEK293 cells; format: cell-based
Chain of human GLP1-R (P43220 24-463): as the sequence (P43220 24-463) above

[5] = biological target: human GLP-1R (SNAP-GLP-1R expressed in HEK293 cells) (human) (UniProt P43220); experiment: cell-based or functional assay
Chain of human GLP-1R (SNAP-GLP-1R expressed in HEK293 cells) (human) (P43220 24-463): as above

hGLP-1R [6] = biological target: T3, hGLP-1R; experiment: cell-based or functional assay
[7] = biological target: T2, human GIP receptor (human); experiment: cell-based or functional assay
[8] = biological target: human glucagon receptor (human) (UniProt P47871); experiment: cell-based or functional assay
Chain of human glucagon receptor (human) (P47871 26-477): as the sequence (P47871 26-477) above

Molecule	GLP1R Internalization EC50 [5]	Internalization % TOP [5]	Relative cAMP EC50 (hGLP-1R [6])	cAMP Rel EC50, nM (1% HSA) (hGLP-1R [6])	Relative cAMP EC50 [7]	cAMP Rel EC50, nM (1% HSA) [7]	Relative cAMP EC50 [8]	cAMP Rel EC50, nM (1% HSA) [8]	further results
Y[Aib]QGTFTSD[4Pal]SQ[αMeL]LD[Orn]K([γGlu-γGlu-C18 diacid])AQ[αMe4Pal]QFIE[αMeY]LIEGGPSSGEPPPSGSEE-NH2 [Example 1026]	–	–	–	–	–	–	–	–	EC50 (hGIPR [1]): 61.3 nM; EC50 (hGLP-1R [2]): 299 nM; EC50 (human GcgR): 2080 nM; EC50 (hGIPR [3]): 0.308 nM; EC50 (hGLP-1R [4]): 1.77 nM; EC50 (hGcgR): 6.32 nM; EC50 (human GLP1-R; HEK293 cells expressing SNAP-GLP-1R, read-out: GLP1R Internalization EC50): 47.4 nM; Internalization % TOP (human GLP1-R; normalized to maximum concentration of GLP-1 (100%)): 80%
B1	35.3 nM	109%	–	–	–	–	–	–	–
Y[Aib]QGTFTSDYS[Dap][αMeL]LDKK([AEEA-γGlu-C18 diacid])AQ[Aib]AFIEYLLEGGESSGAPPPSGS-NH2 [Example 360]	214 nM	66.1%	5.86 nM	989 nM	0.45 nM	78.3 nM	5.28 nM	1470 nM	–
B2	21.8 nM	97.3%	–	–	–	–	–	–	–
Y[Aib]QGTFTSDYSI[αMeL]LDKQAAK([AEEA-AEEA-γGlu-C20 diacid])QFVEWLIA[Aib]GPSSGEPPPAEG-NH2 [Example 334]	28.3 nM	96.8%	0.707 nM	–	0.223 nM	–	6.77 nM	–	cAMP Rel EC50 (1% HSA) (hGLP-1R [6]): 171 nM; cAMP Rel EC50 (1% HSA) [7]: 72.1 nM; cAMP Rel EC50 (1% HSA) [8]: 2070 nM
B3	33.2 nM	101%	–	–	–	–	–	–	cAMP Rel EC50 (1% HSA) (hGLP-1R [6]): 19.1 nM; cAMP Rel EC50 (1% HSA) [7]: 0.542 nM; cAMP Rel EC50 (1% HSA) [8]: 169 nM
B4	11.8 nM	113%	–	–	–	–	–	–	–
B5	21.5 nM	83.1%	2.31 nM	492 nM	0.182 nM	38.8 nM	2.78 nM	876 nM	–
B6	73.5 nM	43.4%	–	–	–	–	–	–	–
B7	50.4 nM	73%	–	376 nM	–	46.3 nM	–	987 nM	–
B8	22.8 nM	77.5%	1.77 nM	450 nM	0.262 nM	38.7 nM	6.04 nM	1450 nM	–
B9	49.6 nM	74.4%	4.61 nM	826 nM	0.281 nM	103 nM	2.1 nM	957 nM	–
